Like-named read-outs stand apart in the source and are kept apart here.
Key:
[1] = molecular target: T1, human SLC34A2 (human, UniProt O95436 1-690); experiment: FACS, RMG-1 cells
T1 construct: whole, on cells; also called human solute carrier 34 A2; NaPi2b
T1 sequence (looked up): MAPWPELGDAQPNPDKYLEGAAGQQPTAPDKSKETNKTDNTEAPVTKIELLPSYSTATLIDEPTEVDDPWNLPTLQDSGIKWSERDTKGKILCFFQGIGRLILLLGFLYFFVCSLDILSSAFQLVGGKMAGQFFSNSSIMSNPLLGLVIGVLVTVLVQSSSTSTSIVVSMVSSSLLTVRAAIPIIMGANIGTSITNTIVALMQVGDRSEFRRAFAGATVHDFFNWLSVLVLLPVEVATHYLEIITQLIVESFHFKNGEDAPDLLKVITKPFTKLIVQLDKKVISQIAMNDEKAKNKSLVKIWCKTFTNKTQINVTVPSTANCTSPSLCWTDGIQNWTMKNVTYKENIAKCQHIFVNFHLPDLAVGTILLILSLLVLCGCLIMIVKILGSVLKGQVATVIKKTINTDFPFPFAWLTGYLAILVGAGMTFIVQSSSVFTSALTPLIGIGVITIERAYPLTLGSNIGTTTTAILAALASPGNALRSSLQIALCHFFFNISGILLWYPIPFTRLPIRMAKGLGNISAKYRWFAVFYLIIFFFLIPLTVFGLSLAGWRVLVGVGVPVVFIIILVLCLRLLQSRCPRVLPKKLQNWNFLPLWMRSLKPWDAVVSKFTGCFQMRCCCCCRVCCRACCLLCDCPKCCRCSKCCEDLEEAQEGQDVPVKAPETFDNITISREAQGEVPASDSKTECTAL
Outline: (§1)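 Humanized antibodies were incubated with HEK293/H_SLC34A2, OVCAR3 or RMG-1 cells at 4° C. for 60 minutes. Cells were washed twice with FACS buffer, stained with fluorescent secondary antibody at 4° C. for 30 minutes, washed twice more and analyzed by flow cytometry.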

[2] = molecular target: T1, human SLC34A2; experiment: FACS, OVCAR3 cells
Outline: as §1

[3] = molecular target: T1, human SLC34A2; experiment: FACS, OVCAR3 cells; remark: listed apart in the source
[4] = molecular target: T1, human SLC34A2; experiment: FACS, MDAH2774 cells
[5] = molecular target: T1, human SLC34A2; experiment: cell-based or functional assay
[6] = molecular target: T1, human SLC34A2; experiment: cell-based or functional assay; remark: listed apart in the source
[7] = molecular target: T1, human SLC34A2; experiment: FACS, HEK293/human SLC34A2 cells
Outline: as §1

[8] = molecular target: T2, Rhesus SLC34A2 (Rhesus, UniProt F7HDA3 1-690); experiment: FACS, HEK293/Rhesus SLC34A2 cells
T2 construct: whole, on cells
T2 sequence: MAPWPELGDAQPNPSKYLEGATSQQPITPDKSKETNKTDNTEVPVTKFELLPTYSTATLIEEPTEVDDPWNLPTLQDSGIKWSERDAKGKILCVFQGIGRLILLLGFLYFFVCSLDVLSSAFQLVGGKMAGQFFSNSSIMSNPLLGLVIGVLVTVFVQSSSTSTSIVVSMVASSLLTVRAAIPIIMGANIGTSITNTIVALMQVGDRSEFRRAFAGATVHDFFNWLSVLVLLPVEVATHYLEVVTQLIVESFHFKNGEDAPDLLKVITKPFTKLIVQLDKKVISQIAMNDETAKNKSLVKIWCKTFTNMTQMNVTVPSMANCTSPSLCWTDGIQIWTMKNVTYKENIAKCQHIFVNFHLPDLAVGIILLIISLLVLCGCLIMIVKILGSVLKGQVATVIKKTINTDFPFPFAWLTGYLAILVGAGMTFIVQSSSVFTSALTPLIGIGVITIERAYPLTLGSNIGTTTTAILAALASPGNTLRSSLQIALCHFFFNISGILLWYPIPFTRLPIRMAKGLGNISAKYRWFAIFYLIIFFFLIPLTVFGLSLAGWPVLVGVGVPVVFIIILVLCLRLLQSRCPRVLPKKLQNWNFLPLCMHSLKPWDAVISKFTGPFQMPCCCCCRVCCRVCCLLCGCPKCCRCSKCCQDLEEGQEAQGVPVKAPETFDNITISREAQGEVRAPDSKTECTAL

[9] = molecular target: T2, Rhesus SLC34A2; experiment: FACS, HEK293/Rhesus SLC34A2 cells; remark: listed apart in the source
[10] = molecular target: T1, human SLC34A2; experiment: cell-based or functional assay; remark: listed apart in the source
[11] = molecular target: T1, human SLC34A2; experiment: cell-based or functional assay; remark: listed apart in the source
[12] = molecular target: T2, Rhesus SLC34A2; experiment: FACS, HEK293/Rhesus SLC34A2 cells; remark: listed apart in the source
Method: Briefly, the Rhesus SLC34A2 expressing HEK293 engineering cells (HEK293/Rhesus_SLC34A2) were incubated with chimeric Abs (from 200 nM, 4 folds dilution, 8 points). After incubation at 4° C. for 60 minutes, the cells were washed with FACS buffer twice, then stained with fluorescent conjugated secondary antibody at 4° C. for 30 minutes. After that the cells were washed twice and analyzed by flow cytometry.

Binder	EC50 [1] [nM]	Top [1] [MFI]	EC50 [2] [nM]	Top [2] [MFI]	EC50 [4] [nM]	ADCC reporter EC50 [5] [nM]	ADCC reporter Top (MFI) [5] [MFI]	EC50 [7] [nM]	Top [7] [MFI]	EC50 [8] [nM]	Top (MFI) [8] [MFI]	ADCC reporter EC50 [10] [nM]	ADCC reporter Top (MFI) [10] [MFI]	cytotoxicity EC50 [11] [nM]	cytotoxicity Inhibition % [11] [%]	EC50 [12] [nM]	Top (MFI) [12] [MFI]	also measured
91C9F1.p1.z7 hIgG1 (antibody, V domains shown, humanized hIgG1) VH: QVQLVQSGAEVKKPGSSVKVSCKTSGFFFTEYIIHWVRQAPGQGLEWIGGIIPNNDVTNYKQNFRGRVTLTADKSTSTAYMELSSLRSEDTAVYYCARWRNAYYSAMDSWGQGTTVTVSS VL: DIQVTQSPSSLSTSVGDRVTITCTASQDVGTAVAWYQQKPGKSPKLLIYWASTRHTGVPERFTGSGSGTDFTLTISSVQPEDVATYFCQQYRTSPLTFGVGTKVEIK	2.25	9720	2.41	20500	2.06	2.12	124000	1.67	37400	4.2	9500							EC50 [3]: 2.4 nM; ADCC-HEK293 [6]: 0.75 nM; ADCC-OVCAR3 [6]: 0.15 nM; Cytotoxic Effect - MDAH-2774 [6]: 0.39 nM; Cytotoxic Effect - OVCAR3 [6]: 0.014 nM; EC50 [9]: 4.2 nM
xi30H9B8F9 hIgG1 (antibody, V domains shown, chimeric, hIgG1) VH: QVQLQQPGAELVKPGASVKMSCKTSGYTFTTNNMHWVKQTPGQGLEWIGAIYPGNGATAYNQKFKGKATLTADKSSSTAYMQLSSLTSEASAVYYCARGMYGHGAMDYWGQGTSVIVSS VL: DIVMTQSHKFMSRSVGDRVRITCKASQDVGTAVAWYQQKPGQSPKLLIYWATTRHSGVPDRFTGSGSGTDFIFTISNVQSEDLADYFCQQYSSNPLTFGAGTKLELK	1.19	11500	0.74			1.26	109000	1.63	40800	0.9	17400	3.1	487000	0.84	91.7	1.26	17000	
xi91C9F1 hIgG1 (antibody, V domains shown, chimeric, hIgG1) VH: EVQLQQSGPELVKPGTSVKISCKTSGFFFTEYIIHWVKQSHGRSLEWIGGIIPNNGVTNYKQNFRGKAALTADKSSNTAYMELRSLTSEDSAVYYCARWRNGYYSAMDSWGQGTSVTVSS VL: DIVVTQSHKFMSTSLGDRVSITCTASQDVGTAVAWYQQKPGHSPKLLIYWASTRHTGVPERFTGSGSGTDFTLTITNVQSEDLADYFCQQYRTSPLTFGVGTKLELK	1.76	9730	2.5	21000		1.96	133000	1.77	32100	1.2	11400	2.8	215000	0.8	97.4	0.95	12200	
XMT-1536 (antibody, INN chains, looked up, V domains shown, rilsodotin auristatin payload) VH: QVQLVQSGAEVVKPGASVKMSCKASGYTFTGYNIHWVKQAPGQGLEWIGAIYPGNGDTSYKQKFRGRATLTADTSTSTVYMELSSLRSEDSAVYYCARGETARATFAYWGQGTLVTVSS VL: DIQMTQSPSSLSASVGDRVTITCSASQDIGNFLNWYQQKPGKTVKVLIYYTSSLYSGVPSRFSGSGSGTDYTLTISSLQPEDFATYYCQQYSKLPLTFGQGTKLELK					7.09													

— US20240301052A1 (LANOVA MEDICINES DEVELOPMENT, published 2024)
